# Results: patent US10889805B2, “Intestinal epithelioid cells” (National Institutes of Biomedical Innovation, Health and …, priority 2015, dated 2021)
# Columns and labels:
# [1] = tested on: ANPEP; assay: ANPEP expression by quantitative real-time RT-PCR in cells differentiating from human iPS cells to enterocyte-like cells; assay type: cell-based; details: compound added with BIO and DAPT, 5 days culture; versus control without the compounds; FIG. 2B
# Method: (§1) The definitive endoderm cells generated from the human iPS cell line (Tic) by the method described in Example 1 above were further cultured for 15 days using the medium 3. During a period from day 4 to day 19 after the initiation of differentiation induction, BIO (5 μM) and DAPT (10 μM) were added to the culture system. Simultaneously with the addition of the BIO and the DAPT, the cells were further cultured for 5 days using the medium 3 supplemented with any one of phorbol-myristate-acetate (PMA), transforming growth factor β1 (TGEβ1), Wortmannin, Noggin, SB431542, Follistatin, EGF, R-spondin1, Pentagastrin, or Wnt3a (FIG. 2A and FIG. 3A).
# (§2) With regard to the measurement of the enterocyte markers ANPEP and VILLIN, each of the enterocyte markers was measured by a quantitative real-time RT-PCR method using SYBR Green gene expression assays (APPLIED BIOSYSTEMS). […] Thus, high expressions of ANPEP and VILLIN were found when the cells were cultured in the system containing SB431542, EGF, or Wnt3a.
# (§3) The quantitative real-time RT-PCR was performed by the following method. […] A quantitative real-time RT-PCR method using SYBR Green gene expression assays (APPLIED BIOSYSTEMS) was performed, and quantification was performed with STEPONEPLUS real-time PCR System (APPLIED BIOSYSTEMS).
# [2] = tested on: VILLIN; assay: VILLIN expression by quantitative real-time RT-PCR in cells differentiating from human iPS cells to enterocyte-like cells; assay type: cell-based; details: compound added with BIO and DAPT, 5 days culture; versus control without the compounds; FIG. 3B
# Method: as §1, §2, §3
molecule,measurement,setting,value
"Wnt3a (protein, UniProt P56704 19-352, looked up, humoral factor added to the culture system) Protein Wnt-3a: SYPIWWSLAVGPQYSSLGSQPILCASIPGLVPKQLRFCRNYVEIMPSVAEGIKIGIQECQHQFRGRRWNCTTVHDSLAIFGPVLDKATRESAFVHAIASAGVAFAVTRSCAEGTAAICGCSSRHQGSPGKGWKWGGCSEDIEFGGMVSREFADARENRPDARSAMNRHNNEAGRQAIASHMHLKCKCHGLSGSCEVKTCWWSQPDFRAIGDFLKDKYDSASEMVVEKHRESRGWVETLRPRYTYFKVPTERDLVYYEASPNFCEPNPETGSFGTRDRTCNVSSHGIDGCDLLCCGRGHNARAERRREKCRCVFHWCCYVSCQECTRVYDVHTCK",expression of ANPEP,[1],high value
same,expression of VILLIN,[2],high value
